Results as given in patent US20120316071A1 (published 2012).
Where a chain is given by its changes, count along the chain named. In names and notes the source's numbering stands.

B1: Fab VH1-46_IGHD6-6*01_IGHJ1*01 S102A/S103P/S104F/H111F/I51T/N52L/S54T/G56H & L6_IGKJ1*01 (Fab, V domains shown)
VH: QVQLVQSGAEVKKPGASVKVSCKASGYTFTSYYMHWVRQAPGQGLEWMGITLPTGHSTSYAQKFQGRVTMTRDTSTSTVYMELSSLRSEDTAVYYCAREEYAPFSAEYFQFWGQGTLVTVSS
VL: not shown
notes: Tested as Fab expressed in E. coli: VH cloned into plasmid A (CH1 constant region, His6 and Flag tags), kappa VL cloned into plasmid C (kappa CL); also called APFF TLTH; H:APFF TLTH
B2: Fab VH1-46_IGHD6-6*01_IGHJ1*01 S102A/S103P/S104F/H111F/I51T/N52L/P53A/S54T/G56H & L6_IGKJ1*01 (Fab, V domains shown)
VH: B1 VH with P53A
VL: not shown
notes: Tested as Fab expressed in E. coli (CH1 with His6/Flag tags from plasmid A; kappa CL from plasmid C); also called APFF TLATH
B3: Fab VH1-46_IGHD6-6*01_IGHJ1*01 S102A/S103P/S104F/H111F/I51T/N52L/P53E/S54T/G56H & L6_IGKJ1*01 (Fab, V domains shown)
VH: B1 VH with P53E
VL: not shown
notes: Tested as Fab expressed in E. coli (CH1 with His6/Flag tags from plasmid A; kappa CL from plasmid C); also called APFF TLETH
B4: Fab VH1-46_IGHD6-6*01_IGHJ1*01 S102A/S103P/S104F/H111F/I51T/N52L/P53G/S54T/G56H & L6_IGKJ1*01 (Fab, V domains shown)
VH: B1 VH with P53G
VL: not shown
notes: Tested as Fab expressed in E. coli (CH1 with His6/Flag tags from plasmid A; kappa CL from plasmid C); also called APFF TLGTH
B5: Fab VH1-46_IGHD6-6*01_IGHJ1*01 S102A/S103P/S104F/H111F/I51T/N52L/P53H/S54T/G56H & L6_IGKJ1*01 (Fab, V domains shown)
VH: B1 VH with P53H
VL: not shown
notes: Tested as Fab expressed in E. coli (CH1 with His6/Flag tags from plasmid A; kappa CL from plasmid C); also called APFF TLHTH
B6: Fab VH1-46_IGHD6-6*01_IGHJ1*01 S102A/S103P/S104F/H111F/I51T/N52L/P53M/S54T/G56H & L6_IGKJ1*01 (Fab, V domains shown)
VH: B1 VH with P53M
VL: not shown
notes: Tested as Fab expressed in E. coli (CH1 with His6/Flag tags from plasmid A; kappa CL from plasmid C); also called APFF TLMTH
B7: Fab VH1-46_IGHD6-6*01_IGHJ1*01 S102A/S103P/S104F/H111F/I51T/N52L/P53N/S54T/G56H & L6_IGKJ1*01 (Fab, V domains shown)
VH: B1 VH with P53N
VL: not shown
notes: Tested as Fab expressed in E. coli (CH1 with His6/Flag tags from plasmid A; kappa CL from plasmid C); also called APFF TLNTH
B8: Fab VH1-46_IGHD6-6*01_IGHJ1*01 S102A/S103P/S104F/H111F/I51T/N52L/P53R/S54T/G56H & L6_IGKJ1*01 (Fab, V domains shown)
VH: B1 VH with P53R
VL: not shown
notes: Tested as Fab expressed in E. coli (CH1 with His6/Flag tags from plasmid A; kappa CL from plasmid C); also called APFF TLRTH
B9: Fab VH1-46_IGHD6-6*01_IGHJ1*01 S102A/S103P/S104F/H111F/I51T/N52L/P53S/S54T/G56H & L6_IGKJ1*01 (Fab, V domains shown)
VH: B1 VH with P53S
VL: not shown
notes: Tested as Fab expressed in E. coli (CH1 with His6/Flag tags from plasmid A; kappa CL from plasmid C); also called APFF TLSTH
B10: Fab VH1-46_IGHD6-6*01_IGHJ1*01 S102A/S103P/S104F/H111F/I51T/N52L/P53T/S54T/G56H & L6_IGKJ1*01 (Fab, V domains shown)
VH: B1 VH with P53T
VL: not shown
notes: Tested as Fab expressed in E. coli (CH1 with His6/Flag tags from plasmid A; kappa CL from plasmid C); also called APFF TLTTH
B11: Fab VH1-46_IGHD6-6*01_IGHJ1*01 S102A/S103P/S104F/H111F/I51T/N52L/P53V/S54T/G56H & L6_IGKJ1*01 (Fab, V domains shown)
VH: B1 VH with P53V
VL: not shown
notes: Tested as Fab expressed in E. coli (CH1 with His6/Flag tags from plasmid A; kappa CL from plasmid C); also called APFF TLVTH
B12: Fab VH1-46_IGHD6-6*01_IGHJ1*01 S102A/S103P/S104F/H111F/I51T/N52L/P53W/S54T/G56H & L6_IGKJ1*01 (Fab, V domains shown)
VH: B1 VH with P53W
VL: not shown
notes: Tested as Fab expressed in E. coli (CH1 with His6/Flag tags from plasmid A; kappa CL from plasmid C); also called APFF TLWTH
B13: Fab VH1-46_IGHD6-6*01_IGHJ1*01 S102A/S103P/S104F/H111F/I51T/N52L/P53Y/S54T/G56H & L6_IGKJ1*01 (Fab, V domains shown)
VH: B1 VH with P53Y
VL: not shown
notes: Tested as Fab expressed in E. coli (CH1 with His6/Flag tags from plasmid A; kappa CL from plasmid C); also called APFF TLYTH
B14: Fab VH1-46_IGHD6-6*01_IGHJ1*01 S102A/S103P/S104F/H111F S54A & L6_IGKJ1*01 (Fab, V domains shown)
VH: B1 VH with T51I, L52N, T54A, H56G
VL: not shown
notes: Fab made in E. coli; CH1 with tags and kappa CL are not included; also called APFF S54A; H:APFF S54A
B15: Fab VH1-46_IGHD6-6*01_IGHJ1*01 S102A/S103P/S104F/H111F G55A & L6_IGKJ1*01 (Fab, V domains shown)
VH: B1 VH with T51I, L52N, T54S, G55A, H56G
VL: not shown
notes: Fab made in E. coli: CH1 with His6/Flag tags from Plasmid A, kappa constant region from Plasmid C; also called APFF G55A
B16: Fab VH1-46_IGHD6-6*01_IGHJ1*01 S102A/S103P/S104F/H111F G56A & L6_IGKJ1*01 (Fab, V domains shown)
VH: B1 VH with T51I, L52N, T54S, H56A
VL: not shown
notes: Fab made in E. coli: CH1 with His6/Flag tags from Plasmid A, kappa constant region from Plasmid C; also called APFF G56A
B17: Fab VH1-46_IGHD6-6*01_IGHJ1*01 S102A/S103P/S104F/H111F I50A & L6_IGKJ1*01 (Fab, V domains shown)
VH: B1 VH with I50A, T51I, L52N, T54S, H56G
VL: not shown
notes: Fab made in E. coli: CH1 with His6/Flag tags from Plasmid A, kappa constant region from Plasmid C; also called APFF I50A
B18: Fab VH1-46_IGHD6-6*01_IGHJ1*01 S102A/S103P/S104F/H111F I51A & L6_IGKJ1*01 (Fab, V domains shown)
VH: B1 VH with T51A, L52N, T54S, H56G
VL: not shown
notes: Fab made in E. coli: CH1 with His6/Flag tags from Plasmid A, kappa constant region from Plasmid C; also called APFF I51A
B19: Fab VH1-46_IGHD6-6*01_IGHJ1*01 S102A/S103P/S104F/H111F N52A & L6_IGKJ1*01 (Fab, V domains shown)
VH: B1 VH with T51I, L52A, T54S, H56G
VL: not shown
notes: Fab made in E. coli: CH1 with His6/Flag tags from Plasmid A, kappa constant region from Plasmid C; also called APFF N52A
B20: Fab VH1-46_IGHD6-6*01_IGHJ1*01 S102A/S103P/S104F/H111F P53A & L6_IGKJ1*01 (Fab, V domains shown)
VH: B1 VH with T51I, L52N, P53A, T54S, H56G
VL: not shown
notes: Fab made in E. coli: CH1 with His6/Flag tags from Plasmid A, kappa constant region from Plasmid C; also called APFF P53A

Each binder was assayed against T1, Recombinant Human DLL4 (human, UniProt Q9NR61 27-524) (assay: ELISA, DLL4 coated, 100 nM Fab).
T1 construct: Bought recombinant protein (R&D Systems Cat#1506-D4/CF), coated on the plate; also called delta-like protein 4; Delta-like 4
For B1, the “ELISA signal” value was 0.641.
In the case of B2, the “ELISA signal” value is reported as 0.33.
With B3 the “ELISA signal” value was 0.017.
In the case of B4, the “ELISA signal” value is reported as 0.018.
B5 was tested, and the “ELISA signal” value was 0.287.
B6 was tested, and the “ELISA signal” value was 0.341.
In the case of B7, the “ELISA signal” value is reported as 0.021.
With B8 the “ELISA signal” value was 0.07.
B9 was tested, and the “ELISA signal” value was 0.076.
For B10, the “ELISA signal” value was 0.219.
For B11, the “ELISA signal” value was 0.035.
With B12 the “ELISA signal” value was 0.433.
B13 was tested, and the “ELISA signal” value was 0.274.

What follows are binders tested against T2, Recombinant Human DLL4 (delta-like protein 4) (human, UniProt Q9NR61 27-529) (assay: ELISA on coated DLL4, 100 nM Fab).
T2 construct: Bought recombinant human DLL4 (R&D Systems Cat#1506-D4/CF), coated on the plate; also called rHuman DLL4; Delta-like 4
In the case of B14, the “ELISA signal” value is reported as 0.02.

What follows are binders tested against T3, Recombinant Human DLL4 (delta-like protein 4) (human, UniProt Q9NR61 27-524) (assay: ECL (MSD) multispot binding assay, DLL4 immobilised, 10 nM Fab, DLL4 signal over blank).
T3 construct: Bought recombinant protein (R&D Systems Cat#1506-D4/CF); also called rHuman DLL4; Delta-like 4
With B15 the “Signal/Noise [10 nM Fab]” value was 44.2.
In the case of B16, the “Signal/Noise [10 nM Fab]” value is reported as 442.
In the case of B17, the “Signal/Noise [10 nM Fab]” value is reported as 9.8.
In the case of B18, the “Signal/Noise [10 nM Fab]” value is reported as 637.
B19 was tested, and the “Signal/Noise [10 nM Fab]” value was 721.
B20 was tested, and the “Signal/Noise [10 nM Fab]” value was 462.

The binders below were run against T3, Recombinant Human DLL4 (delta-like …) (assay: ELISA on plate-coated DLL4, 100 nM Fab, signal minus noise).
B15 was tested, and the “ELISA (Signal-Noise)” value was 0.02.
In the case of B16, the “ELISA (Signal-Noise)” value is reported as 1.6.
B17 was tested, and the “ELISA (Signal-Noise)” value was 0.01.
In the case of B18, the “ELISA (Signal-Noise)” value is reported as 0.49.
In the case of B19, the “ELISA (Signal-Noise)” value is reported as 0.6.
In the case of B20, the “ELISA (Signal-Noise)” value is reported as 0.41.

These binders were tested against T1, Recombinant Human DLL4 (assay: ECL 96-well plate binding assay, DLL4 immobilised, 10 nM Fab).
For B1, the “ECL signal” value was 123000.
For B2, the “ECL signal” value was 163000.
With B3 the “ECL signal” value was 91500.
In the case of B4, the “ECL signal” value is reported as 103000.
With B5 the “ECL signal” value was 108000.
For B6, the “ECL signal” value was 105000.
With B7 the “ECL signal” value was 114000.
For B8, the “ECL signal” value was 63200.
B9 was tested, and the “ECL signal” value was 135000.
For B10, the “ECL signal” value was 125000.
With B11 the “ECL signal” value was 91500.
For B12, the “ECL signal” value was 126000.
For B13, the “ECL signal” value was 99500.
